Target: cellular BACE1 in CHOK1-huAPP cells
Assay: cell-based or functional assay

B1: Clone35.23.4:Control IgG (anti-RSV)/2H8 (bispecific antibody, part only; not given: Anti-RSV arm; TfR-binding Fc, V domains shown, part only)
VH: QVQLVQSGAEVKKPGASVKVSCKASGYTFTNFWIHWVRQAPGQGLEWMGMIDPSSSYTKYNQKFKARATLTVDTSTSTVYMELSSLRSEDTAVYYCARSGASLPYWGQGTLVTVSS
VL: DIQMTQSPSSLSASVGDRVTITCKASQDVGRNVAWYQQKPGKSPKSLIYSASHYYSGVPSRFSGSGSGTDFTLTISSLQPEDFATYFCQQYYSYPYTFGQGTKVEIK
B1 was tested, and the cellular IC50 (human Aβ40, CHO-huAPP cells) was 37 nM and the maximum percent Aβ reduction compared to untreated control was 83%.
